According to paper PMC6813240, “Functional Differentiation of Duplicated Flavonoid 3-O-Glycosyltransferases in the Flavonol and Anthocyanin Biosynthesis of Freesia hybrida” (Frontiers in Plant Science, 2019):

Tests used:
[1] = substrate: O=c1c(O)c(-c2ccc(O)cc2)oc2cc(O)cc(O)c12; assay: purified protein; details: 10 mM UDP-glucose, 50 mM HEPES pH 8.0, 30°C, 2 min
[2] = substrate: O=c1c(O)c(-c2ccc(O)c(O)c2)oc2cc(O)cc(O)c12; assay: HPLC glucosyltransferase assay; assay type: biochemical, Freesia hybrid cultivar; details: 10 mM UDP-glucose, 50 mM HEPES pH 8.0, 30°C, 2 min, acceptor 10-60 µM
[3] = acceptor 10-60 µM (Km lies far below this range)

| Protein | Km [1, 3] [µM] | kcat [1, 3] [s⁻¹] | kcat/Km [1, 3] [M⁻¹ s⁻¹] | Km [2] [µM] | kcat [2] [s⁻¹] | kcat/Km [2] [M⁻¹ s⁻¹] | Km ([1]; acceptor 10-60 µM) [µM] |
| --- | --- | --- | --- | --- | --- | --- | --- |
| Fh3GT2 (Freesia hybrid cultivar) (protein, recombinant from E. coli BL21 (DE3), pET32a, N-terminal 6x His tag, Ni Sepharose purified) MGSSQPPTRRRHVAVIAFPFSSHPAALFTLARAMAAAAPGTTFSFLSFPGSVDSLSKIPCRPENLRLCHVADPTPPGAIPPEQRIGMFLAAAPAYLRAGIKAAEALDGGGVTCLVSDSLLWMTADVAEEKGVPWVAVWTGGTSALVVHVYTDRLRKFYGVVHGDAIHPRADELLDVNVVPGFSEHRVRDLPEGILWKVDSPFASLVDTMVSKFPRAVAVVANTIPGLDPGLDAAFASKFKNYLPIGPFTILSPLPSPQHDNECVAWLDRQAPASVAYVSFGTLAALPPSELTELANGLEASGVPFLWSMKNKEALPAGFLDRTRGKGLVVDWAPQASVLAHNAVGGFVTHCGWSSVMESVAAGVPMICRSVFGDQTMTAKMVCNAWKIGFGFSGGAITREEVVRGLRMVLRGEEGGREIRERSSELKSLAWREVKVEGRTVKNLNSLIEIING | 0.13 ± 0.01 | 0.73 | 5.46e+06 | 16.62 ± 0.03 | 1.86 ± 0.0023 | 112000 |  |
| Fh3GT1 (Freesia hybrid cultivar) (protein, recombinant from E. coli BL21 (DE3), pET32a, N-terminal 6x His tag, Ni Sepharose purified) MGSADRSHVALLAFPFGTHAAPLLSLGLNLASSAPHGTTFSFLSNRRPVSLPPNSAIKFYEIADGSDPEHEGHVHPEEEVRVFMEETPGNYKKALEAAVDRCGGQRVTCIVADAFLWFVGDIAAEFGVHWVPLWTGGPCSFLAHLYTDMLRNKIGTGKEADPDEDLQFLPGLSGFRVRDLPDDIVTGDLTGAFASLLHRMSIEIPRSAAAIAINTFEGLHPDIDADLASKFKKSLPIGPLNLLNPTLNQPDRFSCLAWLDKFEPHSVAYVSFGTLAALTEAELVELASGLEQSGVPFLWSLKEPGQLPAGFLDRTKDRGLVVPWVPQAEALKHVAVGASLSHCGWNSVMESVTSGVPMLCRPFLGDQTMNARAVSHVWKVGVTFENGTMTRANVAEAMKKVVVGEEGRKMRERAAAIREMAAGSVRPGGSSVQNFKALLDIVIAR |  |  |  | 96.38 ± 5.03 | 4.51 ± 0.039 | 46900 | 45.38 ± 3.90 |
